The results in this text go back to patent publication US12195506B2, “Immunotherapy with A*01 restricted peptides and combination of peptides against cancers and related methods” (Immatics Biotechnologies GmbH, priority 2018, dated 2025).

The test deals with HLA-A*01:01 (Homo sapiens, UniProt P04439, A114D/A174V/A182V/D101N/D185E/E176A/E190D/L180R/Q94H/R68K/S129P/T187R/V100A/V91M/W191G). As to the kind of experiment: MHC binding assay: UV-ligand exchange, ELISA of stabilized MHC complexes (peptide exchange yield). Conditions: binding to HLA-A*01:01, UV-ligand exchange. An excerpt:
Candidate peptides for T cell based therapies according to the present invention were further tested for their MHC binding capacity (affinity). The individual peptide-MHC complexes were produced by UV-ligand exchange, where a UV-sensitive peptide is cleaved upon UV-irradiation and exchanged with the peptide of interest as analyzed. Only peptide candidates that can effectively bind and stabilize the peptide-receptive MHC molecules prevent dissociation of the MHC complexes. To determine the yield of the exchange reaction, an ELISA was performed based on the detection of the light chain (β2m) of stabilized MHC complexes. The assay was performed as generally described in Rodenko et al. (Rodenko et al., 2006)
96 well MAXISorp plates (NUNC) were coated over night with 2 ug/ml streptavidin in PBS at room temperature, washed 4× and blocked for 1 h at 37° C. in 2% BSA containing blocking buffer. Refolded HLA-A*02:01/MLA-001 monomers served as standards, covering the range of 15-500 ng/ml. Peptide-MHC monomers of the UV-exchange reaction were diluted 100-fold in blocking buffer. Samples were incubated for 1 h at 37° C., washed four times, incubated with 2 ug/ml HRP conjugated anti-β2m for 1 h at 37° C., washed again and detected with TMB solution that is stopped with […]. Absorption was measured at 450 nm.
Take “154 (SIEVFTHY; listed as Homo sapiens) [compound 154]”: the Peptide exchange result is on record as “+++ (>50 = +++)”.

Regarding “155 (HTMEVTVY; listed as Homo sapiens) [compound 155]”, the Peptide exchange entry was “+++ (>50 = +++)”. Take “156 (STALSILLL; listed as Homo sapiens) [compound 156]”: the Peptide exchange entry is recorded as “++ (>20% = ++)”. Next, “157 (GLIEVVTGY; listed as Homo sapiens) [compound 157]”: “++++ (>75% = ++++)”. With “158 (EVTDRNMLAF; listed as Homo sapiens) [compound 158]”, the Peptide exchange result is “+++ (>50 = +++)”.

For “159 (RQAPGPARDY; listed as Homo sapiens) [compound 159]”, the Peptide exchange result is “++ (>20% = ++)”. The same measure for “160 (EVLGEEMYAY; listed as Homo sapiens) [compound 160]”: “++ (>20% = ++)”; for “161 (EAAPDIMHY; listed as Homo sapiens) [compound 161]”: “++ (>20% = ++)”; for “162 (IADNPQLSFY; listed as Homo sapiens) [compound 162]”: “++++ (>75% = ++++)”.

Turning to “163 (KIRAEVLSHY; listed as Homo sapiens) [compound 163]”, the Peptide exchange result is listed as “++ (>20% = ++)”.

As to “164 (KLAGTVFQY; listed as Homo sapiens) [compound 164]”, the Peptide exchange entry was “++ (>20% = ++)”.

Take “165 (VSVYNSYPY; listed as Homo sapiens) [compound 165]”: the Peptide exchange result is given as “++ (>20% = ++)”.

“166 (YHRICELLSDY; listed as Homo sapiens) [compound 166]”: the Peptide exchange result is listed as “++++ (>75% = ++++)”. Turning to “167 (RAVQPGETY; listed as Homo sapiens) [compound 167]”, the Peptide exchange entry is “+++ (>50 = +++)”. Next, “168 (VQPGETYTY; listed as Homo sapiens) [compound 168]”: “+++ (>50 = +++)”; “169 (TVDNANILL; listed as Homo sapiens) [compound 169]”: “++ (>20% = ++)”. For “170 (VQIAKGMNY; listed as Homo sapiens) [compound 170]”, the Peptide exchange result is “+++ (>50 = +++)”.

Turning to “171 (ITDFGLAKL; listed as Homo sapiens) [compound 171]”, the Peptide exchange result was “++ (>20% = ++)”. Next, “172 (FSEPFHLIV; listed as Homo sapiens) [compound 172]”: “+++ (>50 = +++)”. Next, “173 (QSTTGVSHY; listed as Homo sapiens) [compound 173]”: “+++ (>50 = +++)”; “174 (TSEVEGLAFVSY; listed as Homo sapiens) [compound 174]”: “+++ (>50 = +++)”; “175 (GLEYEAPKLY; listed as Homo sapiens) [compound 175]”: “++ (>20% = ++)”. Next, “176 (HTDLESPSAVY; listed as Homo sapiens) [compound 176]”: “+++ (>50 = +++)”; “177 (LVDGKWQEF; listed as Homo sapiens) [compound 177]”: “++ (>20% = ++)”. Regarding “178 (TQRTSFQFY; listed as Homo sapiens) [compound 178]”, the Peptide exchange result was “++ (>20% = ++)”. Take “179 (SSTDFTFASW; listed as Homo sapiens) [compound 179]”: the Peptide exchange entry was “+ (>10% =+)”. As for “180 (AQISDTGRY; listed as Homo sapiens) [compound 180]”, the Peptide exchange entry is “++ (>20% = ++)”. Next, “181 (SVTDLIGGKW; listed as Homo sapiens) [compound 181]”: “++ (>20% = ++)”; “182 (TQPELSSRY; listed as Homo sapiens) [compound 182]”: “++ (>20% = ++)”; “183 (LADTDLGMTF; listed as Homo sapiens) [compound 183]”: “++ (>20% = ++)”.

As to “184 (KTIQEVAGY; listed as Homo sapiens) [compound 184]”, the Peptide exchange result is recorded as “++ (>20% = ++)”.

Regarding “185 (NSDESADSEPHKY; listed as Homo sapiens) [compound 185]”, the Peptide exchange entry is given as “++++ (>75% = ++++)”.

With “186 (AVSSGLFFY; listed as Homo sapiens) [compound 186]”, the Peptide exchange result was “++ (>20% = ++)”.

For the substance “187 (TQKSVQVLAY; listed as Homo sapiens) [compound 187]”, the Peptide exchange result is listed as “++ (>20% = ++)”.

Take “188 (DIPDYLLQY; listed as Homo sapiens) [compound 188]”: the Peptide exchange result is reported as “+++ (>50 = +++)”. Next, “189 (FRGVFVHRY; listed as Homo sapiens) [compound 189]”: “++ (>20% = ++)”; “190 (VSSTVHNLY; listed as Homo sapiens) [compound 190]”: “++++ (>75% = ++++)”; “191 (FTRAFDQLRM; listed as Homo sapiens) [compound 191]”: “+++ (>50 = +++)”.

As to “192 (LAFYYGMY; listed as Homo sapiens) [compound 192]”, the Peptide exchange result is listed as “++ (>20% = ++)”. The same measure for “193 (SQNGQLIHY; listed as Homo sapiens) [compound 193]”: “+++ (>50 = +++)”.

Regarding “194 (CYTADNEMGY; listed as Homo sapiens) [compound 194]”, the Peptide exchange result is listed as “+++ (>50 = +++)”. The same measure for “195 (YTADNEMGYY; listed as Homo sapiens) [compound 195]”: “+++ (>50 = +++)”; for “196 (RLAQYTIERY; listed as Homo sapiens) [compound 196]”: “++ (>20% = ++)”. With “197 (NDEIDKLTGY; listed as Homo sapiens) [compound 197]”, the Peptide exchange result is “++++ (>75% = ++++)”. The same measure for “198 (KLTDYINANY; listed as Homo sapiens) [compound 198]”: “++ (>20% = ++)”; for “199 (LCAAVLAKY; listed as Homo sapiens) [compound 199]”: “++ (>20% = ++)”; for “200 (SLPEFGLTY; listed as Homo sapiens) [compound 200]”: “++ (>20% = ++)”. As to “201 (SLPEFGLTYY; listed as Homo sapiens) [compound 201]”, the Peptide exchange result is recorded as “++ (>20% = ++)”. On to “202 (QTDINGGSLK; listed as Homo sapiens) [compound 202]”, for which the Peptide exchange entry is “+++ (>50 = +++)”. For the substance “203 (LSQDELSKF; listed as Homo sapiens) [compound 203]”, the Peptide exchange result is listed as “++ (>20% = ++)”. For the substance “204 (NVKEAPTEY; listed as Homo sapiens) [compound 204]”, the Peptide exchange entry is listed as “++ (>20% = ++)”.

As to “205 (RMQEGSEVY; listed as Homo sapiens) [compound 205]”, the Peptide exchange entry is on record as “++ (>20% = ++)”. As for “207 (LLEGEDAHLTQY; listed as Homo sapiens) [compound 207]”, the Peptide exchange result is listed as “+++ (>50 = +++)”. The same measure for “208 (LLISKAEDY; listed as Homo sapiens) [compound 208]”: “++ (>20% = ++)”. For “209 (EADPFLKYL; listed as Homo sapiens) [compound 209]”, the Peptide exchange result was “++ (>20% = ++)”. Consider “210 (LLEADPFLKY; listed as Homo sapiens) [compound 210]”, for which the Peptide exchange result is “++++ (>75% = ++++)”.

On to “211 (YLNEWGSRF; listed as Homo sapiens) [compound 211]”, for which the Peptide exchange entry is recorded as “++ (>20% = ++)”. On to “212 (MMTDLTSVY; listed as Homo sapiens) [compound 212]”, for which the Peptide exchange result is “+++ (>50 = +++)”. Next, “213 (VSDSTTEITY; listed as Homo sapiens) [compound 213]”: “+++ (>50 = +++)”. The same measure for “214 (VQDPSLPVY; listed as Homo sapiens) [compound 214]”: “++ (>20% = ++)”; for “215 (DTLEAATSLY; listed as Homo sapiens) [compound 215]”: “++ (>20% = ++)”. Consider “216 (NSMLDPLVY; listed as Homo sapiens) [compound 216]”, for which the Peptide exchange entry was “++++ (>75% = ++++)”. For “217 (LMDEGAVLTL; listed as Homo sapiens) [compound 217]”, the Peptide exchange result was “++ (>20% = ++)”. The same measure for “218 (FTAQLQLY; listed as Homo sapiens) [compound 218]”: “+++ (>50 = +++)”; for “219 (KTELETALYY; listed as Homo sapiens) [compound 219]”: “+++ (>50 = +++)”.

With “220 (DVERIKDTY; listed as Homo sapiens) [compound 220]”, the Peptide exchange result is on record as “++ (>20% = ++)”. The same measure for “221 (TDVERIKDTY; listed as Homo sapiens) [compound 221]”: “+++ (>50 = +++)”.
